Assay results as given in patent publication US20220293215A1.
Read-outs that look alike come from different tables or passages of the source.

What was measured:
[1] = molecular target: T1, I-A^b (MHCII) of murine bone marrow-derived dendritic cells from C57BL/6J mice (mouse), P14434; assay: MHCII peptidomics: Y3P IP of peptide-MHCII from BMDCs exposed to live Listeria, iTRAQ LC-MS/MS; conditions: scale: log2 fold change, Listeria 6 hr versus 10 min
T1 chain 1: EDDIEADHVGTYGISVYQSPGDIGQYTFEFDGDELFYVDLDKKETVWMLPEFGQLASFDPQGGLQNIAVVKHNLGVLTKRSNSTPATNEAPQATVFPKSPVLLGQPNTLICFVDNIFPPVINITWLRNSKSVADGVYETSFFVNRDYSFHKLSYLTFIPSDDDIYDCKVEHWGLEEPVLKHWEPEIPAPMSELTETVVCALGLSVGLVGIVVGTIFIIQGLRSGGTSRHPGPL
T1 chain 2: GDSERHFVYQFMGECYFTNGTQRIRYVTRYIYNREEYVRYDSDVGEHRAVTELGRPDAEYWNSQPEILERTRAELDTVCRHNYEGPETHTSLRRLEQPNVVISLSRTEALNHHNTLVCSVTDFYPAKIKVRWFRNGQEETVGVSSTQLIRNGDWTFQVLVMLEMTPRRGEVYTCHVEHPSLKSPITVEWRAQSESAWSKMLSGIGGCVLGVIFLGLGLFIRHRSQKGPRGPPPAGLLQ

[2] = molecular target: T1, I-A^b (MHCII) of murine bone …; conditions: scale: log2 fold change, Listeria 6 hr versus 10 min

Binder | logFC [1] | logFC [2]
WNEKYAQAYPNVS (modifications not checked) | 1.38 | 
VERWNEKYAQAYPNVS (modifications not checked) | 0.285 | 
ERWNEKYAQAYPNVS (modifications not checked) | 0.207 | 
ESVYLSAQKENPRLFAKIETF (modifications not checked) [Listeria peptide …n… (lmo1574 (dnaE))] |  | 0.595
WNEKYAQAYPNVSAKI (modifications not checked) | 1.2 | 
